Measurements from article PMC8039031.

Target: CREPT (RPRD1B) (UniProt Q9NQG5)
Assay: co-IP
Conditions: reference: wild type; sites Y705

## STAT3 (from UniProt P40763) Y705F
  binding against the reference: lost
